# From patent WO2022250107A1 (dated 2022)
# B1: EV053273 (antibody, V domains shown)
# VH: QVQLVQSGAEVKEPGTSVKVSCKASGYIFTGYYIHWVRQAPGQGLEWMGWINPNSGGRNYTQKFQGRVTMTRDKSISTVYMELSGLRSDDTAIYYCARDNSWSTVQFCLDYWGQGTLVTVSS
# VL: QSALTQPPSASGSPGQSVTISCTGTSSDVGSYNYVSWYQQYPGKAPKLMIYEVSKRPSGVPDRFSGSKSGNTASLTVSGLQAEDEADYYCSSYGGSNNLVFGGGTKLTVLG
# Molecular target: S protein of SARS-CoV-2 wild strain JPN/TY/WK-521 (on infectious virus) (SARS-CoV-2, UniProt P0DTC2 14-1273)
# Assay: cell-based or functional assay
binder,measurement,value
B1,中和活性 IC50 (inhibition of infection of VeroE6/TMPRSS2 cells),≤ 10 ng/mL
